Test results as given in US20100278829A1, “DUAL INHIBITION OF IMMUNOPHILIN/CYCLOPHILIN FAMILY MEMBERS AND EMMPRIN IMMUNOGLOBULIN RECEPTOR SUPERFAMILY MEMBERS” (priority 2009, published 2010).
“And” between values parts separate entries of the source, which are not always exact repeats. Equal values may be shown once.

How the values were obtained:
CD147 Pro211 = target: T1, CD147 Pro211 (Homo sapiens, UniProt P35613); assay: ZZ-exchange NMR of CypA-mediated peptidyl-prolyl isomerization of CD147; format: biochemical; conditions: for kex (s−1), apparent catalytic exchange rate: [CD147^94-214]=0.5 mM
T1 construct: both containing 0.5 mM ^15N-CD147^94-214 at 25° C; made in house
T1 sequence (P35613 94-214 isoform P35613-2): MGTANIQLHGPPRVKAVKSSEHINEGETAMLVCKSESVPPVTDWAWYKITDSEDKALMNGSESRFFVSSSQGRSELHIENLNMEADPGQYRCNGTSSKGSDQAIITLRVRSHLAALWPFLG
Experimental: For ZZ-exchange experiments, the pulse scheme of Farrow et al. was employed with a selective adiabatic CHIRP pulse applied in the center of the mixing period for water suppression. (69) Two data sets were collected at 720 MHz on two samples with either 0.01 or 0.05 mM CypA and both containing 0.5 mM ^15N-CD147^94-214 at 25° C. and analyzed as previously described to calculate the apparent cis/trans exchange rate (kex). […] Equations (1a), (1b), (1c), and (1d) below were used to simultaneously fit the auto trans peak (Itt), the auto cis peak (Icc), the trans→cis exchange peak (Itc) and the cis→trans exchange peak (Ict), respectively, as a function of τm·Itt(0) and Icc(0) are the initial intensities of the trans and cis auto peaks, respectively, a11=R1t+ktc, a22=R1c+kct, a21=−ktc, and a12=−kct. Finally, under these conditions, ktc and kct can be recast as a function of their free Keq (Pcis/Ptrans=0.33/0.67), and thus, ktc=0.33 kex and kct=0.67 kex.
GraphPad Prism version 4.0 (GraphPad Software Inc., San Diego, Calif.) was used to simultaneously fit all resolvable peaks within CD147 residues 207-214.
ZZ-exchange was used to determine the apparent catalytic exchange rate of CypA-mediated peptidyl-prolyl isomerization of CD147 Pro211, providing a quantitative analysis of the active CypA/CD147 complex (FIG. 49). Specifically, two ZZ-exchange experiments were collected using identical concentrations of 0.5 mM 15N-CD147^94-214 but with two substoichiometric concentrations of the enzyme (i.e., catalytic concentrations) of 0.01 mM (FIG. 49A) and 0.05 mM (FIG. 49B) CypA. Under each condition, the apparent exchange rate (kex), which is the sum of the apparent cis-trans (i.e., kct) and […] (i.e., ktc) catalytic rates, was determined to quantify the rate enhancement of CypA-mediated catalysis (Table 1).

[1] = test system: Human primary skin keratinocytes (Hka); assay: Cytokine stimulation of Hka, ECL and qRT-PCR readout; format: cell-based
Experimental: Cell stimulation. Primary T-cells, H9 cells and Th22 cells (1×10^6 cells/ml) were stimulated with PMA (1 ng/ml) and lonomycin (500 ng/ml) for 18 hrs at 37° C. HKa were stimulated with TNFα (1 ng/ml), TNFα (10 ng/ml)+PEG sTNF-RI (10 μg/ml), IL-1β (10 ng/ml), IL-1β ng/ml+IL-1ra 10 µg/ml, IL-1β ng /ml+TNFα 10 ng/ml and IL-32α or IL-32β for 24 hrs. Hka were stimulated with activated H9 and primary T-cells for 24 hrs at 37° C. PEGsTNF-RI and IL-1ra was obtained from Amgen (Thousand Oaks, Calif.).
ECL. A polyclonal antibody produced in rabbits against recombinant IL-32γ was used for ECL. IgG was prepared with Econo-Pac and then affinity purified through IL-32-immobilized agarose bead column of Affi-gel 15. An aliquot of the affinity purified anti-IL-32γ antibody was labeled with biotin and another aliquot with ruthenium according to the manufacturer's instructions (BioVeris, Gaithersburg, Md.). […] The liquid-phase ECL method was used to measure TNFα, IL-1β, IL-6, IL-8 and IL-32γ in human primary keratinocytes cell culture media and cell lysates in 0.5% Triton-X. The amount of ECL was determined by using an Origen Analyzer (BioVeris).
Quantitative real-time quantitative polymerase chain reaction (TaqMan) analysis (qRT-PCR). […] The amount of cDNA added to each reaction was held to a relatively narrow range, determined by the measurement of 18S RNA. […]

CypA: recombinant cyclophilin A, peptidyl-prolyl isomerase enzyme ligand of CD147
kct (cis→trans catalytic rate) (CD147 Pro211; CypA:CD147 ratio of 1:10): 40 s⁻¹ | ktc (trans→cis catalytic rate) (CD147 Pro211; CypA:CD147 ratio of 1:10): 20 s⁻¹ | kex (s−1), apparent catalytic exchange rate (CD147 Pro211; [CypA]=0.01 mM, 25° C.): 9.6 ± 3.5 s⁻¹ | kex (s−1), apparent catalytic exchange rate (CD147 Pro211; [CypA]=0.05 mM, 25° C.): 44.3 ± 8.1 s⁻¹ | kex extrapolated to the 1:1 / fully bound complex (CD147 Pro211; extrapolated with the peptide Kd, 25° C.): ~6000 s⁻¹ and 4000 to 4800 s⁻¹ | kex (=kct+ktc) (CD147 Pro211; substoichiometric CypA concentrations): ~60 s⁻¹

IL1ra: recombinant human IL-1 receptor antagonist (Amgen)
reversal of IL1β/TNFα-induced IL32γ gene expression in Hka ([1]; qRT-PCR, FIG. 36): reversed

rhuIL-1β: recombinant human IL-1β (R&D Systems) used as inflammatory stimulus
induction of cytoplasmic IL-32γ in Hka ([1]; ECL, cell lysates, +48 hours culture): induced highly significant (P<0.001) levels
